# Patent US20240400654A1
# Values joined by “and” are separate entries in the source; they are usually repeats but may differ in a detail not shown here. Identical values can stand only once.
# Target: HRgpA-6H (Porphyromonas gingivalis) (UniProt P28784)
# Assay: ELISA, coated HRgpA-6H
# Sequence of UniProt P28784 (P28784 228-860 limits assumed): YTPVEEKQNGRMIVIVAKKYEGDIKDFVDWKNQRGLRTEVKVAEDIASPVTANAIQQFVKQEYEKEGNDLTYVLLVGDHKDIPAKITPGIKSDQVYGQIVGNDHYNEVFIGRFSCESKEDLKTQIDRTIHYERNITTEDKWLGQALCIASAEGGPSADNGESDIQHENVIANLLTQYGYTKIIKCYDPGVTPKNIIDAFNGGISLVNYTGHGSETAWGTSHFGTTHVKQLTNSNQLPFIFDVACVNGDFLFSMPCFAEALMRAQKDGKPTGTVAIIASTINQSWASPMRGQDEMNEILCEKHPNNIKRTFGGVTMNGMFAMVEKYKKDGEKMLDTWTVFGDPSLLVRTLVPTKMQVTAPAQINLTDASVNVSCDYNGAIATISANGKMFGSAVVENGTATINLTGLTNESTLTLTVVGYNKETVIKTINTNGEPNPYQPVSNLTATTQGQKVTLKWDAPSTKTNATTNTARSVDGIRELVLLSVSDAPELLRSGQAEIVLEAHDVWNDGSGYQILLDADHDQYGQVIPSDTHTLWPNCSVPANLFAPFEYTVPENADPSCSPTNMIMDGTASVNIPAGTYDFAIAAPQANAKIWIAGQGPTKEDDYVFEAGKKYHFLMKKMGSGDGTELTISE
Binder,OD450 nm,Ratio OD(Variant)/OD(WT)
"KB001 mouse Fab VH Y59T (Fab, V domains shown) VH: EVQLKQSGPGLVAPSQSLSITCTVSGFSLSIYSVHWVRQPPGKGLEWLGMIWGGGSSDTNSALKSRLSISKDNSKSQVFLKMNSLQTDDTAMYYCARNGNFYAMDYWGQGTSVTVSS VL: QIVLTQSPAIMSASLGERVTMTCTASSSVSSSFLHWYQQKPGSSPQLWIYSTSNLASGVPARFSGSGSGTSYSLTISSMEAEDAATYYCHQYHHSPYIYTFGGGTKLEIK",0.744,0.941
"KB001 mouse Fab VH S61R (Fab, V domains shown) VH: EVQLKQSGPGLVAPSQSLSITCTVSGFSLSIYSVHWVRQPPGKGLEWLGMIWGGGSSDYNRALKSRLSISKDNSKSQVFLKMNSLQTDDTAMYYCARNGNFYAMDYWGQGTSVTVSS VL: QIVLTQSPAIMSASLGERVTMTCTASSSVSSSFLHWYQQKPGSSPQLWIYSTSNLASGVPARFSGSGSGTSYSLTISSMEAEDAATYYCHQYHHSPYIYTFGGGTKLEIK",0.438,0.888
"KB001 mouse Fab VH S61C (Fab, V domains shown) VH: EVQLKQSGPGLVAPSQSLSITCTVSGFSLSIYSVHWVRQPPGKGLEWLGMIWGGGSSDYNCALKSRLSISKDNSKSQVFLKMNSLQTDDTAMYYCARNGNFYAMDYWGQGTSVTVSS VL: QIVLTQSPAIMSASLGERVTMTCTASSSVSSSFLHWYQQKPGSSPQLWIYSTSNLASGVPARFSGSGSGTSYSLTISSMEAEDAATYYCHQYHHSPYIYTFGGGTKLEIK",0.431,0.873
"KB001 mouse Fab VH Y59F (Fab, V domains shown) VH: EVQLKQSGPGLVAPSQSLSITCTVSGFSLSIYSVHWVRQPPGKGLEWLGMIWGGGSSDFNSALKSRLSISKDNSKSQVFLKMNSLQTDDTAMYYCARNGNFYAMDYWGQGTSVTVSS VL: QIVLTQSPAIMSASLGERVTMTCTASSSVSSSFLHWYQQKPGSSPQLWIYSTSNLASGVPARFSGSGSGTSYSLTISSMEAEDAATYYCHQYHHSPYIYTFGGGTKLEIK",0.668,0.845
"KB001 mouse Fab VH S61L (Fab, V domains shown) VH: EVQLKQSGPGLVAPSQSLSITCTVSGFSLSIYSVHWVRQPPGKGLEWLGMIWGGGSSDYNLALKSRLSISKDNSKSQVFLKMNSLQTDDTAMYYCARNGNFYAMDYWGQGTSVTVSS VL: QIVLTQSPAIMSASLGERVTMTCTASSSVSSSFLHWYQQKPGSSPQLWIYSTSNLASGVPARFSGSGSGTSYSLTISSMEAEDAATYYCHQYHHSPYIYTFGGGTKLEIK",0.448,0.908
"KB001 mouse Fab VH Y59R (Fab, V domains shown) VH: EVQLKQSGPGLVAPSQSLSITCTVSGFSLSIYSVHWVRQPPGKGLEWLGMIWGGGSSDRNSALKSRLSISKDNSKSQVFLKMNSLQTDDTAMYYCARNGNFYAMDYWGQGTSVTVSS VL: QIVLTQSPAIMSASLGERVTMTCTASSSVSSSFLHWYQQKPGSSPQLWIYSTSNLASGVPARFSGSGSGTSYSLTISSMEAEDAATYYCHQYHHSPYIYTFGGGTKLEIK",0.633,0.8
"KB001 mouse Fab VH N60Q (Fab, V domains shown) VH: EVQLKQSGPGLVAPSQSLSITCTVSGFSLSIYSVHWVRQPPGKGLEWLGMIWGGGSSDYQSALKSRLSISKDNSKSQVFLKMNSLQTDDTAMYYCARNGNFYAMDYWGQGTSVTVSS VL: QIVLTQSPAIMSASLGERVTMTCTASSSVSSSFLHWYQQKPGSSPQLWIYSTSNLASGVPARFSGSGSGTSYSLTISSMEAEDAATYYCHQYHHSPYIYTFGGGTKLEIK",0.447 and 0.402,0.906 and 0.815
"KB001 mouse Fab VH N60P (Fab, V domains shown) VH: EVQLKQSGPGLVAPSQSLSITCTVSGFSLSIYSVHWVRQPPGKGLEWLGMIWGGGSSDYPSALKSRLSISKDNSKSQVFLKMNSLQTDDTAMYYCARNGNFYAMDYWGQGTSVTVSS VL: QIVLTQSPAIMSASLGERVTMTCTASSSVSSSFLHWYQQKPGSSPQLWIYSTSNLASGVPARFSGSGSGTSYSLTISSMEAEDAATYYCHQYHHSPYIYTFGGGTKLEIK",0.44 and 0.428,0.892 and 0.867
"KB001 mouse Fab VH S61K (Fab, V domains shown) VH: EVQLKQSGPGLVAPSQSLSITCTVSGFSLSIYSVHWVRQPPGKGLEWLGMIWGGGSSDYNKALKSRLSISKDNSKSQVFLKMNSLQTDDTAMYYCARNGNFYAMDYWGQGTSVTVSS VL: QIVLTQSPAIMSASLGERVTMTCTASSSVSSSFLHWYQQKPGSSPQLWIYSTSNLASGVPARFSGSGSGTSYSLTISSMEAEDAATYYCHQYHHSPYIYTFGGGTKLEIK",0.49,0.993
"KB001 mouse Fab VH A62N (Fab, V domains shown) VH: EVQLKQSGPGLVAPSQSLSITCTVSGFSLSIYSVHWVRQPPGKGLEWLGMIWGGGSSDYNSNLKSRLSISKDNSKSQVFLKMNSLQTDDTAMYYCARNGNFYAMDYWGQGTSVTVSS VL: QIVLTQSPAIMSASLGERVTMTCTASSSVSSSFLHWYQQKPGSSPQLWIYSTSNLASGVPARFSGSGSGTSYSLTISSMEAEDAATYYCHQYHHSPYIYTFGGGTKLEIK",0.721 and 0.799,0.825 and 0.914
"KB001 mouse Fab VH N60S (Fab, V domains shown) VH: EVQLKQSGPGLVAPSQSLSITCTVSGFSLSIYSVHWVRQPPGKGLEWLGMIWGGGSSDYSSALKSRLSISKDNSKSQVFLKMNSLQTDDTAMYYCARNGNFYAMDYWGQGTSVTVSS VL: QIVLTQSPAIMSASLGERVTMTCTASSSVSSSFLHWYQQKPGSSPQLWIYSTSNLASGVPARFSGSGSGTSYSLTISSMEAEDAATYYCHQYHHSPYIYTFGGGTKLEIK",0.452,0.916
"KB001 mouse Fab VH Y59M/S57I (Fab, V domains shown) VH: EVQLKQSGPGLVAPSQSLSITCTVSGFSLSIYSVHWVRQPPGKGLEWLGMIWGGGSIDMNSALKSRLSISKDNSKSQVFLKMNSLQTDDTAMYYCARNGNFYAMDYWGQGTSVTVSS VL: QIVLTQSPAIMSASLGERVTMTCTASSSVSSSFLHWYQQKPGSSPQLWIYSTSNLASGVPARFSGSGSGTSYSLTISSMEAEDAATYYCHQYHHSPYIYTFGGGTKLEIK",0.701,0.886
"KB001 mouse Fab VH A62M (Fab, V domains shown) VH: EVQLKQSGPGLVAPSQSLSITCTVSGFSLSIYSVHWVRQPPGKGLEWLGMIWGGGSSDYNSMLKSRLSISKDNSKSQVFLKMNSLQTDDTAMYYCARNGNFYAMDYWGQGTSVTVSS VL: QIVLTQSPAIMSASLGERVTMTCTASSSVSSSFLHWYQQKPGSSPQLWIYSTSNLASGVPARFSGSGSGTSYSLTISSMEAEDAATYYCHQYHHSPYIYTFGGGTKLEIK",0.77 and 0.735,0.881 and 0.841
"KB001 mouse Fab VH S61W (Fab, V domains shown) VH: EVQLKQSGPGLVAPSQSLSITCTVSGFSLSIYSVHWVRQPPGKGLEWLGMIWGGGSSDYNWALKSRLSISKDNSKSQVFLKMNSLQTDDTAMYYCARNGNFYAMDYWGQGTSVTVSS VL: QIVLTQSPAIMSASLGERVTMTCTASSSVSSSFLHWYQQKPGSSPQLWIYSTSNLASGVPARFSGSGSGTSYSLTISSMEAEDAATYYCHQYHHSPYIYTFGGGTKLEIK",0.435 and 0.429,0.881 and 0.869
"KB001 mouse Fab VH S61H (Fab, V domains shown) VH: EVQLKQSGPGLVAPSQSLSITCTVSGFSLSIYSVHWVRQPPGKGLEWLGMIWGGGSSDYNHALKSRLSISKDNSKSQVFLKMNSLQTDDTAMYYCARNGNFYAMDYWGQGTSVTVSS VL: QIVLTQSPAIMSASLGERVTMTCTASSSVSSSFLHWYQQKPGSSPQLWIYSTSNLASGVPARFSGSGSGTSYSLTISSMEAEDAATYYCHQYHHSPYIYTFGGGTKLEIK",0.469,0.95
"KB001 mouse Fab VH N60T (Fab, V domains shown) VH: EVQLKQSGPGLVAPSQSLSITCTVSGFSLSIYSVHWVRQPPGKGLEWLGMIWGGGSSDYTSALKSRLSISKDNSKSQVFLKMNSLQTDDTAMYYCARNGNFYAMDYWGQGTSVTVSS VL: QIVLTQSPAIMSASLGERVTMTCTASSSVSSSFLHWYQQKPGSSPQLWIYSTSNLASGVPARFSGSGSGTSYSLTISSMEAEDAATYYCHQYHHSPYIYTFGGGTKLEIK",0.406,0.823
"KB001 mouse Fab VH S61M (Fab, V domains shown) VH: EVQLKQSGPGLVAPSQSLSITCTVSGFSLSIYSVHWVRQPPGKGLEWLGMIWGGGSSDYNMALKSRLSISKDNSKSQVFLKMNSLQTDDTAMYYCARNGNFYAMDYWGQGTSVTVSS VL: QIVLTQSPAIMSASLGERVTMTCTASSSVSSSFLHWYQQKPGSSPQLWIYSTSNLASGVPARFSGSGSGTSYSLTISSMEAEDAATYYCHQYHHSPYIYTFGGGTKLEIK",0.493 and 0.479,0.999 and 0.971
"KB001 mouse Fab VH S61G (Fab, V domains shown) VH: EVQLKQSGPGLVAPSQSLSITCTVSGFSLSIYSVHWVRQPPGKGLEWLGMIWGGGSSDYNGALKSRLSISKDNSKSQVFLKMNSLQTDDTAMYYCARNGNFYAMDYWGQGTSVTVSS VL: QIVLTQSPAIMSASLGERVTMTCTASSSVSSSFLHWYQQKPGSSPQLWIYSTSNLASGVPARFSGSGSGTSYSLTISSMEAEDAATYYCHQYHHSPYIYTFGGGTKLEIK",0.46 and 0.476,0.932 and 0.965
"KB001 mouse Fab VH A62G (Fab, V domains shown) VH: EVQLKQSGPGLVAPSQSLSITCTVSGFSLSIYSVHWVRQPPGKGLEWLGMIWGGGSSDYNSGLKSRLSISKDNSKSQVFLKMNSLQTDDTAMYYCARNGNFYAMDYWGQGTSVTVSS VL: QIVLTQSPAIMSASLGERVTMTCTASSSVSSSFLHWYQQKPGSSPQLWIYSTSNLASGVPARFSGSGSGTSYSLTISSMEAEDAATYYCHQYHHSPYIYTFGGGTKLEIK",0.813 and 0.785,0.93 and 0.898
"KB001 mouse Fab VH S61Y (Fab, V domains shown) VH: EVQLKQSGPGLVAPSQSLSITCTVSGFSLSIYSVHWVRQPPGKGLEWLGMIWGGGSSDYNYALKSRLSISKDNSKSQVFLKMNSLQTDDTAMYYCARNGNFYAMDYWGQGTSVTVSS VL: QIVLTQSPAIMSASLGERVTMTCTASSSVSSSFLHWYQQKPGSSPQLWIYSTSNLASGVPARFSGSGSGTSYSLTISSMEAEDAATYYCHQYHHSPYIYTFGGGTKLEIK",0.423,0.857
"KB001 mouse Fab VH S61F (Fab, V domains shown) VH: EVQLKQSGPGLVAPSQSLSITCTVSGFSLSIYSVHWVRQPPGKGLEWLGMIWGGGSSDYNFALKSRLSISKDNSKSQVFLKMNSLQTDDTAMYYCARNGNFYAMDYWGQGTSVTVSS VL: QIVLTQSPAIMSASLGERVTMTCTASSSVSSSFLHWYQQKPGSSPQLWIYSTSNLASGVPARFSGSGSGTSYSLTISSMEAEDAATYYCHQYHHSPYIYTFGGGTKLEIK",0.432 and 0.473,0.875 and 0.958
